# Paper PMC5384220 (2017)
# T1: His-KDM4A_(1–359)-Bio (human, UniProt O75164 1-359, biotin on the AviTag (>95% biotinylation))
# T1 chain: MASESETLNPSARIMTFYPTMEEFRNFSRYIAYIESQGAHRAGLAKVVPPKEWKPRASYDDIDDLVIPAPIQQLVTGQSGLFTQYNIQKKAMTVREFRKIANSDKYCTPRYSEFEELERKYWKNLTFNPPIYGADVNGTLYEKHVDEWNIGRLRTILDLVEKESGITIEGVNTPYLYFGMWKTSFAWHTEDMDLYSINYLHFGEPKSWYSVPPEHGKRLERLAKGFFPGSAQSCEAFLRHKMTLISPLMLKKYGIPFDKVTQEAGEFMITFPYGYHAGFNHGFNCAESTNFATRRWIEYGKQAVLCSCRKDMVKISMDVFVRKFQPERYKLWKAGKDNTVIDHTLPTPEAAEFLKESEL
# Target: T1, His-KDM4A_(1–359)-Bio
# Assay: BLI
binder,measurement,value
ARTKQTARKSTGGKA (trimethyl-lysine at 9) [H3(1–15)K9me3],Kd,110 µM
